Source: patent US20230235068A1 (published 2023)

B1: H4H18462P2 (antibody, human IgG4, V domains shown)
VH: EVQLVESGGDLVQPGRSLRLSCAASGFTFSSFAMSWVRQAPGRGLEWVSSLSDSGDNTYYADSVKGRFTISRDNSKNTLYLQMNNLRAEDTAVYYCAKDLFSGWLFHGFDVWGQGTMVTVSS
VL: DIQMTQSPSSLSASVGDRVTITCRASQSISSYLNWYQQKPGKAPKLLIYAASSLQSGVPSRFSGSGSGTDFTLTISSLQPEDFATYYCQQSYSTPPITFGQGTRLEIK
notes: Fully human variable regions; H4H prefix = human IgG4 Fc
B2: H4H17322P2 (antibody, human IgG4, V domains shown)
VH: QLQLQESGPGLVKPSETLSLTCTVSGASISSSRFYGGWIRQPPGKGLEWIGDIYYSGNTYYNPSLQSRVTISVDTSKNQFSLKLSSVTAADTAVYYCARHLMITFGGLIVEGFDIWGQGTMVTVSS
VL: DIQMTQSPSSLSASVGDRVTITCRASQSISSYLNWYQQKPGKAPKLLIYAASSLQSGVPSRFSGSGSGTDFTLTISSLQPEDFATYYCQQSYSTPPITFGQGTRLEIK
notes: as for B1

Columns and labels:
[1] = molecular target: T1, recombinant mouse LEPR extracellular domain expressed with a C-terminal myc-myc-hexahistidine tag (mouse, UniProt P48356 22-839); assay: SPR, captured mAb, 37 C
T1 construct: Monomeric construct; also called mLEPR.MMH; mLEPR-MMH
T1 sequence (P48356 other isoform, or with tags, fused parts or gaps): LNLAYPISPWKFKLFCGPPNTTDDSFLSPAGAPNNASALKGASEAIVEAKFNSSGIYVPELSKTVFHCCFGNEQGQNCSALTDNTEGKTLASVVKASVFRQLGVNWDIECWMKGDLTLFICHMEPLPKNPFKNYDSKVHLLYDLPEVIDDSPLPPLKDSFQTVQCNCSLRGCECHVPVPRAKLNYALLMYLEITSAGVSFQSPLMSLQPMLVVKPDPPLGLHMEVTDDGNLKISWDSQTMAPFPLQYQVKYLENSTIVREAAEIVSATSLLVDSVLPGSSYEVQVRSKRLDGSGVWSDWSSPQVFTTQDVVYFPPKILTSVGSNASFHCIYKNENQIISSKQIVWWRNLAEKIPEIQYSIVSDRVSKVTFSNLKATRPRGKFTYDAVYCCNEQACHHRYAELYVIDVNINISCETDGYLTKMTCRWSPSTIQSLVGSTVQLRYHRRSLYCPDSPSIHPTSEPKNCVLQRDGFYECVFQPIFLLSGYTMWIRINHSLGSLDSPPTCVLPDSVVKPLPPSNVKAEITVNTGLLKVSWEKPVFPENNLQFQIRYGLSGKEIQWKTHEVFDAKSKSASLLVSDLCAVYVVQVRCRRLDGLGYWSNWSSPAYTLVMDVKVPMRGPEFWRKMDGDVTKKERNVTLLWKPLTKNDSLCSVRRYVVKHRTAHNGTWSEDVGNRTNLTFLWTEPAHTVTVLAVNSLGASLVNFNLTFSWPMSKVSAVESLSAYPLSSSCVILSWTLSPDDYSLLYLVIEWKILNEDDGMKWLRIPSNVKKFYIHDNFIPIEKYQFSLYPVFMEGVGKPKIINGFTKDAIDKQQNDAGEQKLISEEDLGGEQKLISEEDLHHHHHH
Protocol: (§1) Equilibrium dissociation constants (KD values) for antigen binding to purified anti-LEPR monoclonal antibodies of the invention were determined using a real-time surface plasmon resonance biosensor using a Biacore 4000 instrument. All binding studies were performed in running buffer containing 10 mM HEPES, 150 mM NaCl, 3 mM EDTA, and 0.05% v/v Surfactant Tween-20, pH 7.4 (HBS-ET running buffer) at 25° C. and 37° C. The Biacore sensor surface was first derivatized by amine coupling with a monoclonal mouse anti-human Fc antibody (GE, #BR-1008-39) to the capture anti-LEPR monoclonal antibodies. […] The dissociation of monoclonal antibody bound LEPR reagent was monitored for 10 minutes in HBS-ET running buffer. Kinetic association (kₐ) and dissociation (kd) rate constants were determined by fitting the real-time binding sensorgrams to a 1:1 binding model with mass transport limitation using Scrubber 2.0c curve-fitting software. Binding dissociation equilibrium constants (KD) and dissociative half-lives (t½) were calculated from the kinetic rate constants as: […]

[2] = molecular target: T2, recombinant rat LEPR extracellular domain expressed with a C-terminal myc-myc-hexahistidine tag (rat, UniProt Q62959 22-839); assay: SPR, captured mAb, 25 C
T2 construct: Monomeric construct; also called rLEPR.MMH; rLEPR-MMH
T2 sequence (Q62959 other isoform, or with tags, fused parts or gaps): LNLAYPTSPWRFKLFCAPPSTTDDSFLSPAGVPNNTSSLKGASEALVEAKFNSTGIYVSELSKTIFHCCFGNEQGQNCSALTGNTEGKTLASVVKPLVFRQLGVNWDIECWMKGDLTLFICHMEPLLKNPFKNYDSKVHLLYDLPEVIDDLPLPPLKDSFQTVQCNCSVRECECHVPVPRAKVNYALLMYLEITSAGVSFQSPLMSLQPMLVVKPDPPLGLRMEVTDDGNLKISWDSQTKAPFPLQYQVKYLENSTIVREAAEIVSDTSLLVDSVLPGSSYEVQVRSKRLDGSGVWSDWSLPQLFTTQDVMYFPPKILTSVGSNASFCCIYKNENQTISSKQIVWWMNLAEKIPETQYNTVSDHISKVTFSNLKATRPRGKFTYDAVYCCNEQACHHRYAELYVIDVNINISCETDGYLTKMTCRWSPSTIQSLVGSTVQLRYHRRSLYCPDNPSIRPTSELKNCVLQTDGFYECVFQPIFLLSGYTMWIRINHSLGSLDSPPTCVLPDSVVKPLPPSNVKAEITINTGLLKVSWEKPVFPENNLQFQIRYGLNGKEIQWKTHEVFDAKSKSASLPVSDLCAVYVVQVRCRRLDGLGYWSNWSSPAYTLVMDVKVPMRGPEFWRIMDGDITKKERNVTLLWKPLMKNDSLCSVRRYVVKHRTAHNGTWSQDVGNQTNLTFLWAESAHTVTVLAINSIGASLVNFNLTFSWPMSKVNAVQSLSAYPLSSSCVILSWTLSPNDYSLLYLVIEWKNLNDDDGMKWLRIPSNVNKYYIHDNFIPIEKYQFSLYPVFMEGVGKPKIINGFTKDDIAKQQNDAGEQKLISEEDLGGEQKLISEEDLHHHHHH
Protocol: as §1

| Binder | 100 nM mLEPR-MMH Bound (RU) [1] [RU] | 100 nM rLEPR-MMH Bound (RU) [2] [RU] |
| --- | --- | --- |
| B1 | 3 | – |
| B2 | – | 10 |
